Reference: patent US20230265151A1, “GIP/GLP1 CO-AGONIST COMPOUNDS” (priority 2020, published 2023)
Numbering of substitutions follows the chain as printed. *1 amine or outer side, *2 acyl side, *3 side chain or, on linkers, in order; H or OH if unused. Where no end group is shown, it is not given here. Side-chain parts run from the residue outwards. [ ]: non-standard residue; d: D form. The star is where a group is joined. αMePhe(2-F) = C[C@](N)(Cc1ccccc1F)C(=O)O; γGlu = O=C(O)[C@H](CCC(=O)[*:2])N[*:1]; C14 diacid = O=C(O)CCCCCCCCCCCCC(=O)*; αMeY = C[C@](N)(Cc1ccc(O)cc1)C(=O)O; αMeL = CC(C)C[C@](C)(N)C(=O)O; Orn = NCCC[C@H](N)C(=O)O; AEEA = NCCOCCOCC(=O)O; Aib = CC(C)(N)C(=O)O

T1: human GIP receptor (human, UniProt P48546 22-466)
T1 sequence (looked up): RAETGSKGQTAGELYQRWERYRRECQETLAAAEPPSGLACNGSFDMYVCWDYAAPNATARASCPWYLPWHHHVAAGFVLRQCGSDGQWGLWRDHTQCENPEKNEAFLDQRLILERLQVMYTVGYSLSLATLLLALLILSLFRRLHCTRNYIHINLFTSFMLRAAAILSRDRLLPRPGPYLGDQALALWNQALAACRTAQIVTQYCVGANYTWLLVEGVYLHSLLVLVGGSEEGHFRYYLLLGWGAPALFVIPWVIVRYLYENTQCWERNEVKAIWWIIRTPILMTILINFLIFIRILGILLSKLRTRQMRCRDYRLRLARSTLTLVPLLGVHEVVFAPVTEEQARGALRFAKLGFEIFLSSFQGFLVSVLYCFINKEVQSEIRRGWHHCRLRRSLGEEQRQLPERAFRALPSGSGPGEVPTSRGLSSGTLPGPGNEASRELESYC

T2: human GIP receptor (human, UniProt P48546 22-466)
T2 sequence (looked up): T1 sequence (looked up)

T3: human GIP receptor (human) (UniProt P48546)
T3 sequence (looked up): T1 sequence (looked up)

B1: Example 352 (peptide)
peptide: YXEGTXTSDYXIXLDXKAQXXFIXXLIKGGPSSGAPPPS
modifications: Y-Aib-EGT-αMeF(2F)-TSDY-Aib-I-αMeL-LD-Orn-K((2-[2-(2-Amino-ethoxy)-ethoxy]-acetyl)2-(γ-Glu)-(10-(4-carboxyphenoxy)decanoyl))AQ-Aib-Om-FI-(D-Glu)-αMeY-LIK((2-[2-(2-Amino-ethoxy)-ethoxy]-acetyl)2-(γ-Glu)-(10-(4-carboxyphenoxy)decanoyl))GGPSSGAPPPS-NH2
B2: Example 448 (peptide)
peptide: Y[Aib]EGT[αMePhe(2-F)]TSDV[Aib]I[αMeL]LD[Orn]QAQ[Aib][Orn]FIK([AEEA-AEEA-γGlu-C14 diacid])[αMeY]LIK([AEEA-AEEA-γGlu-C14 diacid])GGPSSGAPPPS-NH2
modifications: N-terminus assumed
SMILES: CC[C@H](C)[C@H](NC(=O)[C@H](CC(C)C)NC(=O)[C@](C)(Cc1ccc(O)cc1)NC(=O)[C@H](CCCCNC(=O)COCCOCCNC(=O)COCCOCCNC(=O)CC[C@H](NC(=O)CCCCCCCCCCCCC(=O)O)C(=O)O)NC(=O)[C@@H](NC(=O)[C@H](Cc1ccccc1)NC(=O)[C@H](CCCN)NC(=O)C(C)(C)NC(=O)[C@H](CCC(N)=O)NC(=O)[C@H](C)NC(=O)[C@H](CCC(N)=O)NC(=O)[C@H](CCCN)NC(=O)[C@H](CC(=O)O)NC(=O)[C@H](CC(C)C)NC(=O)[C@](C)(CC(C)C)NC(=O)[C@@H](NC(=O)C(C)(C)NC(=O)[C@@H](NC(=O)[C@H](CC(=O)O)NC(=O)[C@H](CO)NC(=O)[C@@H](NC(=O)[C@](C)(Cc1ccccc1F)NC(=O)[C@@H](NC(=O)CNC(=O)[C@H](CCC(=O)O)NC(=O)C(C)(C)NC(=O)[C@@H](N)Cc1ccc(O)cc1)[C@@H](C)O)[C@@H](C)O)C(C)C)[C@@H](C)CC)[C@@H](C)CC)C(=O)N[C@@H](CCCCNC(=O)COCCOCCNC(=O)COCCOCCNC(=O)CC[C@H](NC(=O)CCCCCCCCCCCCC(=O)O)C(=O)O)C(=O)NCC(=O)NCC(=O)N1CCC[C@H]1C(=O)N[C@@H](CO)C(=O)N[C@@H](CO)C(=O)NCC(=O)N[C@@H](C)C(=O)N1CCC[C@H]1C(=O)N1CCC[C@H]1C(=O)N1CCC[C@H]1C(=O)N[C@@H](CO)C(N)=O
B3: Example 354 (peptide)
peptide: B1 peptide with Y10X, K17I, X24K
modifications: Y-Aib-EGT-αMeF(2F)-TSD-4Pal-Aib-I-αMeL-LD-Orn-IAQ-Aib-Orn-FIK((2-[2-(2-Amino-ethoxy)-ethoxy]-acetyl)2-(γ-Glu)-(10-(4-carboxyphenoxy)decanoyl))-αMeY-LIK((2-[2-(2-Amino-ethoxy)-ethoxy]-acetyl)2-(γ-Glu)-(10-(4-carboxyphenoxy)decanoyl))GGPSSGAPPPS-NH2
B4: Example 364 (peptide)
peptide: B1 peptide with K17I, X21E, X24K
modifications: Y-Aib-EGT-αMeF(2F)-TSDY-Aib-I-αMeL-LD-Orn-IAQ-Aib-EFIK((2-[2-(2-Amino-ethoxy)-ethoxy]-acetyl)-(γ-Glu)-(2-[2-(2-Amino-ethoxy)-ethoxy]-acetyl)2-CO-(CH2)12-CO2H)-αMeY-LIK((2-[2-(2-Amino-ethoxy)-ethoxy]-acetyl)-(γ-Glu)-(2-[2-(2-Amino-ethoxy)-ethoxy]-acetyl)2-CO-(CH2)12-CO2H)GGPSSGAPPPS-NH2
B5: Example 442 (peptide)
peptide: B1 peptide with Y10X, K17Q, X24K
modifications: Y-Aib-EGT-αMeF(2F)-TSD-4Pal-Aib-I-αMeL-LD-Orn-QAQ-Aib-Orn-FIK(2-[2-(2-Amino-ethoxy)-ethoxy]-acetyl)2-(γ-Glu)-(11-(4-carboxyphenoxy)undecanoyl)-αMeY-LIK((2-[2-(2-Amino-ethoxy)-ethoxy]-acetyl)2-(γ-Glu)-(11-(4-carboxyphenoxy)undecanoyl)GGPSSGAPPPS-NH2)
B6: Example 402 (peptide)
peptide: B1 peptide with K17Q, X21E, X24K
modifications: Y-Aib-EGT-αMeF(2F)-TSDY-Aib-I-αMeL-LD-Orn-QAQ-Aib-EFIK((2-[2-(2-Amino-ethoxy)-ethoxy]-acetyl)2-(γ-Glu)-(10-(4-carboxyphenoxy)decanoyl))-αMeY-LIK((2-[2-(2-Amino-ethoxy)-ethoxy]-acetyl)2-(γ-Glu)-(10-(4-carboxyphenoxy)decanoyl))GGPSSGAPPPS-NH2
B7: Example 443 (peptide)
peptide: B1 peptide with Y10X, K17Q, X24K
modifications: Y-Aib-EGT-αMeF(2F)-TSD-4Pal-Aib-I-αMeL-LD-Orn-QAQ-Aib-Orn-FIK((2-[2-(2-Amino-ethoxy)-ethoxy]-acetyl)2-(γ-Glu)-CO-(CH2)14-CO2)-αMeY-LIK((2-[2-(2-Amino-ethoxy)-ethoxy]-acetyl)2-(γ-Glu)-CO-(CH2)14-CO2)GGPSSGAPPPS-NH2
B8: Example 391 (peptide)
peptide: B1 peptide with Y10X, K17Q, X24K
modifications: Y-Aib-EGT-αMeF(2F)-TSD-4Pal-Aib-I-αMeL-LD-Orn-QAQ-Aib-Orn-FIK((2-[2-(2-Amino-ethoxy)-ethoxy]-acetyl)2-(γ-Glu)-CO-(CH2)12-CO2H)-αMeY-LIK((2-[2-(2-Amino-ethoxy)-ethoxy]-acetyl)2-(γ-Glu)-CO-(CH2)12-CO2H)GGPSSGAPPPS-NH2
B9: Example 441 (peptide)
peptide: B1 peptide with Y10X, I12G, K17Q, X24K
modifications: Y-Aib-EGT-αMeF(2F)-TSD-4Pal-Aib-G-αMeL-LD-Orn-QAQ-Aib-Orn-FIK((2-[2-(2-Amino-ethoxy)-ethoxy]-acetyl)2-(γ-Glu)-CO-(CH2)12-CO2H)-αMeY-LIK((2-[2-(2-Amino-ethoxy)-ethoxy]-acetyl)2-(γ-Glu)-CO-(CH2)12-CO2H)GGPSSGAPPPS-NH2
B10: Example 365 (peptide)
peptide: B1 peptide with K17I, X21E, X24K
modifications: Y-Aib-EGT-αMeF(2F)-TSDY-Aib-I-αMeL-LD-Orn-IAQ-Aib-EFIK((2-[2-(2-Amino-ethoxy)-ethoxy]-acetyl)-(γ-Glu)-(2-[2-(2-Amino-ethoxy)-ethoxy]-acetyl)-CO-(CH2)12-CO2H)-αMeY-LIK((2-[2-(2-Amino-ethoxy)-ethoxy]-acetyl)-(γ-Glu)-(2-[2-(2-Amino-ethoxy)-ethoxy]-acetyl)-CO-(CH2)12-CO2H)GGPSSGAPPPS-NH2

Biological target: human glucagon receptor (human, UniProt P47871 26-477)
Assay: cell-based or functional assay

Binder | cAMP EC50 (1.0% HSA) [nM]
B1 | > 9950

Biological target: T1, human GIP receptor
Assay: cell-based or functional assay

Binder | cAMP EC50 (1.0% HSA) [nM] | cAMP Emax (1.0% HSA) [%]
B1 | 0.277 | 71.3

Biological target: human GLP-1 receptor (human, UniProt P43220 24-463)
Assay: cell-based or functional assay

Binder | cAMP EC50 (1.0% HSA) [nM] | cAMP Emax (1.0% HSA) [%]
B2 | 7.91 | 99.5
B3 | 7.25 | 95.9
B4 | 13 | –
B5 | 7.63 | –
B6 | 13.5 | –
B7 | 133 | –
B8 | 2.62 | –
B9 | 5.75 | 111
B10 | 22.3 | 91

Biological target: human glucagon receptor (human, UniProt P47871 26-477)
Assay: cell-based or functional assay
Remark: another data set of the same source
Target sequence in this assay (P47871 26-477): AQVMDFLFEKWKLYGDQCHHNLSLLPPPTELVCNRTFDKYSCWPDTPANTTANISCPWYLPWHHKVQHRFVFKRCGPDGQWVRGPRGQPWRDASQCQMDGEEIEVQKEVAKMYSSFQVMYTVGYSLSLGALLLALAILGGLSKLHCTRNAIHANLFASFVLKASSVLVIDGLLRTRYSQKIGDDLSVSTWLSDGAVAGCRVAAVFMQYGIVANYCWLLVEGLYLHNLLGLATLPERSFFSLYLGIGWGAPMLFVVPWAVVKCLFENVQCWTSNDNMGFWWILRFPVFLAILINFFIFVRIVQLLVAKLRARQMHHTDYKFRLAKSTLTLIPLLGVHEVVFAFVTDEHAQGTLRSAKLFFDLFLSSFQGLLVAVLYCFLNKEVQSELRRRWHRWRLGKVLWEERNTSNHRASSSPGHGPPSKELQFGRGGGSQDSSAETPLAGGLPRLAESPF

Binder | cAMP EC50 (1.0% HSA) [nM]
B2 | > 9950
B3 | > 9950
B4 | > 9950
B5 | > 9950
B6 | > 9950
B7 | > 9950
B8 | > 9950
B9 | > 9950
B10 | > 9950

Biological target: human GLP-1 receptor (human, UniProt P43220 24-463)
Assay: cell-based or functional assay
Remark: another data set of the same source

Binder | cAMP EC50 (1.0% HSA) [nM] | cAMP Emax (1.0% HSA) [%]
B1 | 5.46 | 93.5

Biological target: T2, human GIP receptor
Assay: cell-based or functional assay

Binder | cAMP EC50 (1.0% HSA) [nM] | cAMP Emax (1.0% HSA) [%]
B2 | 1.41 | –
B3 | 0.857 | 67.5
B4 | 0.895 | –
B5 | 0.687 | –
B6 | 1.11 | 84.5
B7 | 12.2 | –
B8 | 0.266 | –
B9 | 1.38 | 83.8
B10 | 1.93 | –

Biological target: hGLP-1R (Homo sapiens, UniProt P43220)
Assay: cell-based or functional assay

Binder | cAMP EC50 [nM] | cAMP Emax [%]
B1 | 0.262 | 99.5

Biological target: human glucagon receptor (human) (UniProt P47871)
Assay: cell-based or functional assay

Binder | cAMP EC50 [nM]
B1 | > 9950

Biological target: T3, human GIP receptor (human)
Assay: cell-based or functional assay

Binder | cAMP EC50 [nM] | cAMP Emax [%]
B1 | 0.0106 | 98.3
